Reference: article PMC9834221, “TLR3 forms a laterally aligned multimeric complex along double-stranded RNA for efficient signal transduction”

T1: TLR3 ectodomain Mut10 (mouse, UniProt Q99MB1 26-705, S116E;Q118E;K138E;K140E;N142E;K145E;N146E)
T1 sequence: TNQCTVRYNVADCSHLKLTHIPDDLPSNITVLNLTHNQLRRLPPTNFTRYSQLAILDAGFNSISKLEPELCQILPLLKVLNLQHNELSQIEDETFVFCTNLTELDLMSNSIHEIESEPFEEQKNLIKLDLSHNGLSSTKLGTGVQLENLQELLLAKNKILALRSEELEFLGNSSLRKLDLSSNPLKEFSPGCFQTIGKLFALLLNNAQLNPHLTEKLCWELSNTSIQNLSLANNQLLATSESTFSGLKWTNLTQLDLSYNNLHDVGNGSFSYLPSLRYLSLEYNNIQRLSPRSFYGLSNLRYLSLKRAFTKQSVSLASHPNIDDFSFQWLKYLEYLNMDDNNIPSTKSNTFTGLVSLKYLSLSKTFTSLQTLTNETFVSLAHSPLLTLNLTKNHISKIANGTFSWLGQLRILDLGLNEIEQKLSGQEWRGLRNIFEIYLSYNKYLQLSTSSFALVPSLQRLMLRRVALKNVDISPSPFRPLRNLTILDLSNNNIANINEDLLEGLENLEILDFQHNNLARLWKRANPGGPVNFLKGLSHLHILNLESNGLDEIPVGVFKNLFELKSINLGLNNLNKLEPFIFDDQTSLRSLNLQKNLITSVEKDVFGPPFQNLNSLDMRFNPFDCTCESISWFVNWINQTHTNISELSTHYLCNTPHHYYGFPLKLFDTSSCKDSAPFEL

T2: TLR3 ectodomain WT (mouse, UniProt Q99MB1 26-705)
T2 sequence: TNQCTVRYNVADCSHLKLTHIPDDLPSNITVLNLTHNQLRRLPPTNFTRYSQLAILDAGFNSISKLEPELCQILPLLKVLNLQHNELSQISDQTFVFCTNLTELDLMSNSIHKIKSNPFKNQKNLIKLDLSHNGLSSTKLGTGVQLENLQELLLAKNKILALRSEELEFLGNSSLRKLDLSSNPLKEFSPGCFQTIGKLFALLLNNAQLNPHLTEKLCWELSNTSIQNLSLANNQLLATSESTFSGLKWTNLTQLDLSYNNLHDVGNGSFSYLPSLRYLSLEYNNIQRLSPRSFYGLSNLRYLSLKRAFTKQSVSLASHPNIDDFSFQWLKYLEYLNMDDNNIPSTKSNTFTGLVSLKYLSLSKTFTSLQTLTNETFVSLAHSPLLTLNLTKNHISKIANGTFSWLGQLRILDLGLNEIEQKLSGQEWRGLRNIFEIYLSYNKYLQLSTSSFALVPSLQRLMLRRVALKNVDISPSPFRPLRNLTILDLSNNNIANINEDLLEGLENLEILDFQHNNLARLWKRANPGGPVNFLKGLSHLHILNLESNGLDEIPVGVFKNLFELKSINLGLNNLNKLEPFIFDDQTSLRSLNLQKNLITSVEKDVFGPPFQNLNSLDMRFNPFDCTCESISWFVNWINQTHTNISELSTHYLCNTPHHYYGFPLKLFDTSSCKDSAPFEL


How the values were obtained:
TLR3 ectodomain Mut10 = biological target: T1, TLR3 ectodomain Mut10; assay: cryo-EM 3D reconstruction; dimer identical to WT; Protein in 25 mM MES-NaOH pH 5.3, 0.2-0.3 M NaCl (purification buffer); complex formation conditions not in the material; conditions: protein: recombinant; tags: C-terminal FLAG-His6; chain copies: 2; blunt
TLR3 ectodomain WT = biological target: T2, TLR3 ectodomain WT; assay: cryo-EM structure; two TLR3 dimers laterally aligned along dsRNA; Protein in 25 mM MES-NaOH pH 5.3, 0.2-0.3 M NaCl (purification buffer); complex formation conditions not in the material; conditions: protein: recombinant; tags: C-terminal FLAG-His6; chain copies: 4; blunt

Binder	binding result (TLR3 ectodomain Mut10)	binding result (TLR3 ectodomain WT)
46 bp dsRNA (dsRNA, 2'-O-methyl at strand 1 positions 10-15 and 36-41 (lower case); complement modifications not stated) RNA 1: AUUCUGCGGAUUAUUUGGCAAAGGAAGCAUUGACACAUGCGCCAAU RNA 2: AUUGGCGCAUGUGUCAAUGCUUCCUUUGCCAAAUAAUCCGCAGAAU	binds	
90 bp dsRNA (dsRNA, 2'-O-methyl at strand 1 positions 10-15 and 80-85 (lower case); complement modifications not stated) RNA 1: AUUCUGCGGAUUAUUUGGCAAAGGAAGCAUUGACACAUGCGCCAAUUCUGCGGAUUAUUUGGCAAAGGAAGCAUUGACACAUGCGCCAAU RNA 2: AUUGGCGCAUGUGUCAAUGCUUCCUUUGCCAAAUAAUCCGCAGAAUUGGCGCAUGUGUCAAUGCUUCCUUUGCCAAAUAAUCCGCAGAAU		binds
